The series has as its system Escherichia coli TOP10. Put plainly: shrunken log2 fold change of peptide-encoding DNA abundance (4.5 h post-induction vs induction); higher = less antimicrobial activity (less host growth inhibition). As to conditions: time post-induction: 4.5 h; library: site-saturation at positions 5, 18, 19, 20.
Take RRIRVRPPRLPRPRPRPENIPRP: the “shrunken log2 fold change” value was -0.125.
The result for RRIRKRPPRLPRPRPRPGHMPRP reads 0.177.
As to RRIRVRPPRLPRPRPRPKENPRP, the “shrunken log2 fold change” value was 0.184.
As to RRIRWRPPRLPRPRPRPAQKPRP, the “shrunken log2 fold change” value stood at 0.157.
Consider RRIRSRPPRLPRPRPRPRMLPRP, for which the “shrunken log2 fold change” value was -0.214.
As for RRIRNRPPRLPRPRPRPNDKPRP, the “shrunken log2 fold change” value is -0.549.
As for RRIRGRPPRLPRPRPRPHVTPRP, the “shrunken log2 fold change” value turned out to be 0.00976.
As to RRIRPRPPRLPRPRPRPFFPPRP, the “shrunken log2 fold change” value is -0.135.
In the case of RRIRDRPPRLPRPRPRPDCMPRP, the “shrunken log2 fold change” value was 0.781.
In the case of RRIRGRPPRLPRPRPRPTYMPRP, the “shrunken log2 fold change” value turned out to be 0.0228.
As to RRIRRRPPRLPRPRPRPMLKPRP, the “shrunken log2 fold change” value came out at 0.0333.
With RRIRQRPPRLPRPRPRPLWTPRP, the “shrunken log2 fold change” value was -0.042.
As for RRIRFRPPRLPRPRPRPQLKPRP, the “shrunken log2 fold change” value is -0.0312.
For the sequence RRIRERPPRLPRPRPRPGQSPRP, the “shrunken log2 fold change” value was determined as 0.0977.
As for RRIRYRPPRLPRPRPRPPNAPRP, the “shrunken log2 fold change” value was 0.153.
In the case of RRIRVRPPRLPRPRPRPLGGPRP, the “shrunken log2 fold change” value came to 0.27.
In the case of RRIRFRPPRLPRPRPRPPWKPRP, the “shrunken log2 fold change” value is 0.154.
In the case of RRIRVRPPRLPRPRPRPTKRPRP, the “shrunken log2 fold change” value worked out at 0.331.
For RRIRFRPPRLPRPRPRPMMMPRP, the “shrunken log2 fold change” value was -0.101.
As for RRIRQRPPRLPRPRPRPKFVPRP, the “shrunken log2 fold change” value was -0.105.
With RRIRCRPPRLPRPRPRPYLPPRP, the “shrunken log2 fold change” value is -1.2.
As to RRIRGRPPRLPRPRPRPPDAPRP, the “shrunken log2 fold change” value is 1.45.
As for RRIRMRPPRLPRPRPRPYSMPRP, the “shrunken log2 fold change” value is -0.245.
The result for RRIRIRPPRLPRPRPRPTNIPRP reads -0.237; that for RRIRWRPPRLPRPRPRPRCAPRP, 0.586; that for RRIRKRPPRLPRPRPRPMEYPRP, -0.00192.
The result for RRIRKRPPRLPRPRPRPRWGPRP reads 0.358; that for RRIRPRPPRLPRPRPRPMCPPRP, -0.267; that for RRIRFRPPRLPRPRPRPGEEPRP, 0.0793.
The result for RRIRTRPPRLPRPRPRPPITPRP reads -0.235.
For the sequence RRIRTRPPRLPRPRPRPYWAPRP, the “shrunken log2 fold change” value was -0.0649.
For RRIRCRPPRLPRPRPRPKTIPRP, the “shrunken log2 fold change” value was -0.141.
The figure for RRIRGRPPRLPRPRPRPGSKPRP is 0.0737; for RRIRPRPPRLPRPRPRPFFFPRP it is 0.279; for RRIRWRPPRLPRPRPRPQFLPRP it is -0.0223.
The figure for RRIRRRPPRLPRPRPRPDIDPRP is 0.0367; for RRIRWRPPRLPRPRPRPCLLPRP it is -0.188.
Consider RRIRERPPRLPRPRPRPFCAPRP, for which the “shrunken log2 fold change” value is 0.548.
The figure for RRIRQRPPRLPRPRPRPGMHPRP is -0.0509; for RRIRFRPPRLPRPRPRPNQEPRP it is 0.229.
The result for RRIRCRPPRLPRPRPRPMEKPRP reads 0.0833.
For RRIRLRPPRLPRPRPRPFCLPRP, the “shrunken log2 fold change” value was -0.485.
With RRIRSRPPRLPRPRPRPLCWPRP, the “shrunken log2 fold change” value turned out to be 0.131.
In the case of RRIRYRPPRLPRPRPRPAKTPRP, the “shrunken log2 fold change” value is -0.00829.
As to RRIRDRPPRLPRPRPRPCFMPRP, the “shrunken log2 fold change” value stood at 0.0118.
As for RRIRHRPPRLPRPRPRPVAKPRP, the “shrunken log2 fold change” value was -0.17.
With RRIRFRPPRLPRPRPRPERMPRP, the “shrunken log2 fold change” value was 0.124.
As for RRIRFRPPRLPRPRPRPTMTPRP, the “shrunken log2 fold change” value was -0.0114.
For the sequence RRIRIRPPRLPRPRPRPKRGPRP, the “shrunken log2 fold change” value was 0.2.
For the sequence RRIRYRPPRLPRPRPRPAFFPRP, the “shrunken log2 fold change” value was -0.405.
Consider RRIRMRPPRLPRPRPRPSYMPRP, for which the “shrunken log2 fold change” value is -0.276.
As for RRIRWRPPRLPRPRPRPYWCPRP, the “shrunken log2 fold change” value is -0.704.
Take RRIRLRPPRLPRPRPRPVVQPRP: the “shrunken log2 fold change” value was determined as 0.0325.
In the case of RRIRPRPPRLPRPRPRPPWRPRP, the “shrunken log2 fold change” value came to 0.558.
Turning to RRIRDRPPRLPRPRPRPHNFPRP, the “shrunken log2 fold change” value was 0.0112.
With RRIRHRPPRLPRPRPRPGPFPRP, the “shrunken log2 fold change” value was -0.225.
Take RRIRHRPPRLPRPRPRPNHNPRP: the “shrunken log2 fold change” value is -0.954.
For RRIRMRPPRLPRPRPRPTGTPRP, the “shrunken log2 fold change” value was determined as 0.407.
Consider RRIRKRPPRLPRPRPRPLKCPRP, for which the “shrunken log2 fold change” value is -0.072.
For the sequence RRIRMRPPRLPRPRPRPTIFPRP, the “shrunken log2 fold change” value is -0.0388.
Regarding RRIRYRPPRLPRPRPRPFELPRP, the “shrunken log2 fold change” value is -0.529.
The result for RRIRSRPPRLPRPRPRPLYRPRP reads -0.346.
For the sequence RRIRGRPPRLPRPRPRPNIAPRP, the “shrunken log2 fold change” value is 0.197.
RRIRIRPPRLPRPRPRPHMEPRP: the “shrunken log2 fold change” value was -0.332.
As to RRIRIRPPRLPRPRPRPFVEPRP, the “shrunken log2 fold change” value is -0.37.
Take RRIRTRPPRLPRPRPRPAWMPRP: the “shrunken log2 fold change” value is 0.307.
The result for RRIRQRPPRLPRPRPRPEETPRP reads -0.0125.
In the case of RRIRDRPPRLPRPRPRPCLCPRP, the “shrunken log2 fold change” value came out at 0.0206.
For the sequence RRIRWRPPRLPRPRPRPQYIPRP, the “shrunken log2 fold change” value was -0.944.
With RRIRFRPPRLPRPRPRPQNKPRP, the “shrunken log2 fold change” value is -0.592.
As for RRIRWRPPRLPRPRPRPTKEPRP, the “shrunken log2 fold change” value was 0.177.
For RRIRFRPPRLPRPRPRPDKKPRP, the “shrunken log2 fold change” value is -0.0461.
The figure for RRIRGRPPRLPRPRPRPKEMPRP is 0.5; for RRIRTRPPRLPRPRPRPHHDPRP it is -0.469; for RRIRERPPRLPRPRPRPCHIPRP it is -0.439.
The figure for RRIRTRPPRLPRPRPRPRFDPRP is 0.332; for RRIRVRPPRLPRPRPRPAFIPRP it is 0.00175.
The result for RRIRWRPPRLPRPRPRPQTNPRP reads 0.14; that for RRIRFRPPRLPRPRPRPRLPPRP, 1.13; that for RRIRARPPRLPRPRPRPNICPRP, -0.0618.
In the case of RRIRIRPPRLPRPRPRPHDDPRP, the “shrunken log2 fold change” value is -0.177.
The figure for RRIRQRPPRLPRPRPRPYNEPRP is -0.184; for RRIRLRPPRLPRPRPRPCGYPRP it is -0.111; for RRIRSRPPRLPRPRPRPRTDPRP it is 0.0755.
With RRIRIRPPRLPRPRPRPFMAPRP, the “shrunken log2 fold change” value is -0.397.
As for RRIRLRPPRLPRPRPRPTYQPRP, the “shrunken log2 fold change” value was -0.229.
On to RRIRQRPPRLPRPRPRPYVRPRP, for which the “shrunken log2 fold change” value was -0.216.
The result for RRIRWRPPRLPRPRPRPLIVPRP reads 0.0513; that for RRIRNRPPRLPRPRPRPDWTPRP, -0.0129.
For RRIRCRPPRLPRPRPRPKPDPRP, the “shrunken log2 fold change” value came out at 0.296.
Regarding RRIRPRPPRLPRPRPRPDTKPRP, the “shrunken log2 fold change” value was -0.0208.
As to RRIRLRPPRLPRPRPRPPCRPRP, the “shrunken log2 fold change” value amounted to 0.0548.
The result for RRIRYRPPRLPRPRPRPDTWPRP reads -0.0135; that for RRIRPRPPRLPRPRPRPRFFPRP, 0.211.
The result for RRIRKRPPRLPRPRPRPMQHPRP reads 0.589.
For the sequence RRIRDRPPRLPRPRPRPNWHPRP, the “shrunken log2 fold change” value is 0.144.
The result for RRIRHRPPRLPRPRPRPIVMPRP reads -0.012; that for RRIRGRPPRLPRPRPRPSGHPRP, -0.202; that for RRIRHRPPRLPRPRPRPHDFPRP, -0.0633.
In the case of RRIRHRPPRLPRPRPRPHNCPRP, the “shrunken log2 fold change” value was -0.0289.
With RRIRCRPPRLPRPRPRPCWAPRP, the “shrunken log2 fold change” value is -0.0725.
For the sequence RRIRFRPPRLPRPRPRPNEWPRP, the “shrunken log2 fold change” value came out at 0.0686.
For RRIRWRPPRLPRPRPRPVKLPRP, the “shrunken log2 fold change” value is -0.0719.
Take RRIRQRPPRLPRPRPRPFSYPRP: the “shrunken log2 fold change” value was -0.0227.
The figure for RRIRARPPRLPRPRPRPCIDPRP is 0.306; for RRIRYRPPRLPRPRPRPGGVPRP it is -0.332; for RRIRDRPPRLPRPRPRPEKTPRP it is 0.0897.
Turning to RRIRKRPPRLPRPRPRPAWNPRP, the “shrunken log2 fold change” value came to 1.
The figure for RRIRIRPPRLPRPRPRPQIIPRP is -0.213.
The result for RRIRGRPPRLPRPRPRPWTCPRP reads -0.0593.
The result for RRIRKRPPRLPRPRPRPNDVPRP reads 0.117.
RRIRHRPPRLPRPRPRPHMIPRP: the “shrunken log2 fold change” value is 0.13.
RRIRWRPPRLPRPRPRPICMPRP: the “shrunken log2 fold change” value is -0.242.
Turning to RRIRRRPPRLPRPRPRPEHSPRP, the “shrunken log2 fold change” value was determined as 0.143.
Regarding RRIRSRPPRLPRPRPRPWHHPRP, the “shrunken log2 fold change” value was -0.0809.
For RRIRMRPPRLPRPRPRPDHNPRP, the “shrunken log2 fold change” value was -0.00429.
As to RRIRHRPPRLPRPRPRPQMSPRP, the “shrunken log2 fold change” value was -0.0899.
For RRIRCRPPRLPRPRPRPTLWPRP, the “shrunken log2 fold change” value was found to be 0.313.
For the sequence RRIRDRPPRLPRPRPRPSQWPRP, the “shrunken log2 fold change” value is -0.119.
The figure for RRIRLRPPRLPRPRPRPGKKPRP is 0.0971.
RRIRHRPPRLPRPRPRPKTEPRP: the “shrunken log2 fold change” value is -0.0292.
Take RRIRIRPPRLPRPRPRPERRPRP: the “shrunken log2 fold change” value came to 0.264.
On to RRIRPRPPRLPRPRPRPTQRPRP, for which the “shrunken log2 fold change” value was 0.369.
The result for RRIRERPPRLPRPRPRPHWRPRP reads 0.198.
As for RRIRSRPPRLPRPRPRPMTAPRP, the “shrunken log2 fold change” value was -0.0379.

For the origin of these results see the supplement of paper PMC9112550, “Optimization of the antimicrobial peptide Bac7 by deep mutational scanning” (BMC Biology, 2022).
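Note: peptides expressed intracellularly from a pBAD plasmid library in pooled LB shake-flask culture, induced with 0.3% L-arabinose, DNA abundance read by NGS, three biological replicates, DESeq2 with apeglm shrinkage.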
